Laboratory results taken from patent US6596500B1, “Binding of retinoids to M6P/IGF-II receptor” (The General Hospital Corporation, priority 1998, dated 2003).

Biological target: T1, partially purified rat M6P/IGF-II receptor (Rattus norvegicus, UniProt G3V824)
T1 construct: both intact (300 kDa) and truncated (260 kDa) forms of M6P/IGF-II receptor exist in the serum; from tissue; host or cells: neonatal rat serum, FPLC Sepharose-12 fraction
Assay: Equilibrium [3H]RA ligand-binding assay (dextran-charcoal), Scatchard analysis
Conditions: β-glucuronidase 2,500 units/ml
Experimental: Partially purified M6P/IGF-II receptors from neonatal rat serum was prepared using a Fast Protein Liquid Chromatography (FPLC) system equipped with a Sepharose-12 column (Pharmacia). The partially purified M6P/IGF2R protein was diluted in binding buffer (20 mM Tris-HCl, pH 8.0/150 mM NaCl/1mM DTT/protease inhibitors) at a concentration of 50 Ag/ml. […] Incubation was carried out at 22° C. for 2 h in the dark. After the incubation, 0.2 ml chilled charcoal-dextran suspension (charcoal/dextran/glycerol=0.5%/0.05%/20%) was added to remove the unbound ligand.

T1 sequence (G3V824 36-2481): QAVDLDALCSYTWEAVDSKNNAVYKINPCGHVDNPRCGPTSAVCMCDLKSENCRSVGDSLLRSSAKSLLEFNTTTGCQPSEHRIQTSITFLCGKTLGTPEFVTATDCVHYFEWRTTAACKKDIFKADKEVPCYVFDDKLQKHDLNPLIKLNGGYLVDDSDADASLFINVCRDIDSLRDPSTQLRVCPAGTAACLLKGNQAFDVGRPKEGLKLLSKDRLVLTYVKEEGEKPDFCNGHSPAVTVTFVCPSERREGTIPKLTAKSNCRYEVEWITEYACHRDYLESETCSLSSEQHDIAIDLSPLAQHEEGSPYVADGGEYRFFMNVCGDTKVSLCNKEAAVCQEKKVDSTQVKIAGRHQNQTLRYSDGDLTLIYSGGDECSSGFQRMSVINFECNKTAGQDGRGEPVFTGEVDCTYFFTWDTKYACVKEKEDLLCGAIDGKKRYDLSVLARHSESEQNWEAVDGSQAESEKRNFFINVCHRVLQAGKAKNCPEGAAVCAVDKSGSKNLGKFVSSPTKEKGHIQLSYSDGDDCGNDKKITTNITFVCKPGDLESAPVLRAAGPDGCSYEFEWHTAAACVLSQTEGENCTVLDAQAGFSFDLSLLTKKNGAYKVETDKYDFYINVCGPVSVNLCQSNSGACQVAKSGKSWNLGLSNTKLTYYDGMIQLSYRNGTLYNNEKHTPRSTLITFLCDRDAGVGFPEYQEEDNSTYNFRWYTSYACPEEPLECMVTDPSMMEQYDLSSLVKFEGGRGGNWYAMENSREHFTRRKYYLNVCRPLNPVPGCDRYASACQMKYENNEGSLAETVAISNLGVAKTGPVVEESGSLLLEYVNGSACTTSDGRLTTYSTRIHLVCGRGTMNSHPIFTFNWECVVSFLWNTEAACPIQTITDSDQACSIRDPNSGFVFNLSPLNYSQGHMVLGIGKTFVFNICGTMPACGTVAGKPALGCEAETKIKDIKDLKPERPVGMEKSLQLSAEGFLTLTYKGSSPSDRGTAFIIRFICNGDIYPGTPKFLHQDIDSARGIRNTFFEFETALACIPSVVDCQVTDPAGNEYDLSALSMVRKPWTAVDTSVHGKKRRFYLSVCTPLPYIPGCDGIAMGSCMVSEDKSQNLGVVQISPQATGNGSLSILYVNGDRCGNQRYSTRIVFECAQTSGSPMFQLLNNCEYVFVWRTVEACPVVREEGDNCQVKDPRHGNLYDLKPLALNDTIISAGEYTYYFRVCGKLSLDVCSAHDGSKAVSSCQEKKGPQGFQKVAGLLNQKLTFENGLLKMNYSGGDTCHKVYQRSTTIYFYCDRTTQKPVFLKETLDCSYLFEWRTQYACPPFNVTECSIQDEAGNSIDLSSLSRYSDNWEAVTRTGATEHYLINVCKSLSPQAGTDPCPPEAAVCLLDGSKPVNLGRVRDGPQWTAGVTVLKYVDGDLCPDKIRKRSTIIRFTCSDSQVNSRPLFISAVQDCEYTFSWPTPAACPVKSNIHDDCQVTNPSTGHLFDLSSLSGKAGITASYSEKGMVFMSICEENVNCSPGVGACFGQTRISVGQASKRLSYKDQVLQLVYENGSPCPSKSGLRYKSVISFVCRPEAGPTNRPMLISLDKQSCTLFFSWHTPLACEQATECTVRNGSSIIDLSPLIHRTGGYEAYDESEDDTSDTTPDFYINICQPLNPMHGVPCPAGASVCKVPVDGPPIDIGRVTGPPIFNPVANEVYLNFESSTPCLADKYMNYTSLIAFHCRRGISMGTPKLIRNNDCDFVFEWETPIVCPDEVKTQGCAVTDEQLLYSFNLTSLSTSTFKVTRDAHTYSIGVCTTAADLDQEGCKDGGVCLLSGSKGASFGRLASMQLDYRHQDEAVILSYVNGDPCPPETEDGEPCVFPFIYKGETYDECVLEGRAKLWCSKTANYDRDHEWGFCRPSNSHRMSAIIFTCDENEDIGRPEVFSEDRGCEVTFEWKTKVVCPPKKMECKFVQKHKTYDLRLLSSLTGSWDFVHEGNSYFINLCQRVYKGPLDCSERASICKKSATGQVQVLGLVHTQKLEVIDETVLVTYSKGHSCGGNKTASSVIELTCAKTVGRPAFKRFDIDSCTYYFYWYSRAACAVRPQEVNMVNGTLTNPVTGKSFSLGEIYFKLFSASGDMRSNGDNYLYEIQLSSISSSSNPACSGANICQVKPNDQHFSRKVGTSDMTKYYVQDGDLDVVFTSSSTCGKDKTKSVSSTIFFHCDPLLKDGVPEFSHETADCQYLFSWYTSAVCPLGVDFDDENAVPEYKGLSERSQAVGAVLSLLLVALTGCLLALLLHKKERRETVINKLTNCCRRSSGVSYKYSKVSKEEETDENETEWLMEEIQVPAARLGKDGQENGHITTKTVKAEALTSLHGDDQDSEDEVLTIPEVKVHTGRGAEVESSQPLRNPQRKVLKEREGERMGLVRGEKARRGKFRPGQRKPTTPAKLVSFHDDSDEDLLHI

B1: β-glucuronidase: M6P-containing lysosomal enzyme (protein, UniProt P08236 23-651, looked up)
Beta-glucuronidase: LQGGMLYPQESPSRECKELDGLWSFRADFSDNRRRGFEEQWYRRPLWESGPTVDMPVPSSFNDISQDWRLRHFVGWVWYEREVILPERWTQDLRTRVVLRIGSAHSYAIVWVNGVDTLEHEGGYLPFEADISNLVQVGPLPSRLRITIAINNTLTPTTLPPGTIQYLTDTSKYPKGYFVQNTYFDFFNYAGLQRSVLLYTTPTTYIDDITVTTSVEQDSGLVNYQISVKGSNLFKLEVRLLDAENKVVANGTGTQGQLKVPGVSLWWPYLMHERPAYLYSLEVQLTAQTSLGPVSDFYTLPVGIRTVAVTKSQFLINGKPFYFHGVNKHEDADIRGKGFDWPLLVKDFNLLRWLGANAFRTSHYPYAEEVMQMCDRYGIVVIDECPGVGLALPQFFNNVSLHHHMQVMEEVVRRDKNHPAVVMWSVANEPASHLESAGYYLKMVIAHTKSLDPSRPVTFVSNSNYAADKGAPYVDVICLNSYYSWYHDYGHLELIQLQLATQFENWYKKYQKPIIQSEYGAETIAGFHQDPPLMFTEEYQKSLLEQYHLGLDQKRRKYVVGELIWNFADFMTEQSPTRVLGNKKGIFTRQRQPKSAAFLLRERYWKIANETRYPHSVAKSQCLENSLFT
Effect on [3H]RA binding to the receptor: increase [^3H]RA binding
